For one substance, Kd results are on record in US20200102373A1.

pKd: −log10 of the molar value.

For the assay, the target named is biotin-labeled HA peptide. Kind of assay: SPR (OpenSPR), biotin-labeled HA peptide on a Streptavidin chip, purified FB-GFP in solution, one-to-one model, two independent experiments.

With “purified recombinant HA frankenbody fused with mEGFP and a hexahistidine tag (purified FB-GFP, from E. coli) (scFv)”, the pKd was 7.83.

In general, pKd refers to −log10 of the Kd, conventionally taken in molar units. Read a low pKd as a large Kd.
